Measured values: patent US6730503B1 (Roche Vitamins Inc., priority 1996, dated 2004)

Experiments:
[1] = Thermal stability, 5 minutes, residual activity by PMS-DCIP assay; type: physicochemical
Protocol: Table 4 indicates the results of thermal-stabilities of the enzymes. The enzyme (about 0.05 mg/ml) in 25 mM HEPES buffer, pH 7.5, containing 5% sucrose, 0.2 M NaCl, and 5 mM CaCl2 was incubated at temperature indicated in the table (4-60° C.) for 5 minutes, cooled in ice bath and assayed by PMS-DCIP spectrophotometric method. Remaining activity was expressed as relative activity against that obtained by 4° C. incubation.

[2] = Oxidation product of AADH clones by resting cell reaction followed by TLC analysis; type: cell-based, P. putida
From the text: Enzyme A gene was originally cloned as a cosmid clone of p24D4 which has about 25 kb insert in EcoRI site of pVK100. Then, it was further subcloned to use as an Enzyme A gene cassette. The 2.7 kb EcoRV fragment which includes ORF of Enzyme A gene with about 500 bp of non-coding regions at the both ends was excised from 3.4 kb NruI fragment, which was isolated from p24D4 in M13 mp18, and was ligated to HindIII site of pUC18 with HindIII linker ([…]). The resulting plasmid was designated pSSA202. Enzyme A gene cassette (2.7 kb HindIII fragment) was then inserted at HindIII site of pVK102 to produce pSSA102R. The plasmid pSSA102R was introduced into nalidixic acid resistant P. putida [ATCC 21812] by a conjugal mating method as described in Example 1-(1). The transconjugant of P. putida carrying pSSA102R was selected on MB agar medium containing 50 μg/ml nalidixic acid and 10 μg/ml tetracycline (MNT agar medium) and subjected to a mini-resting cell reaction. […] The reaction mixture was assayed with TLC and 2KGA was identified as the product, while no 2KGA was observed by the same resting cell reaction with the host, nalidixic acid resistant P. putida [ATCC 21812].

[3] = pH stability, 3 hours at 25° C., residual activity by PMS-DCIP assay; type: physicochemical; conditions: relative to no incubation at pH 8.0
Protocol: Enzymes A, A′, A″ and B were incubated in buffers of various pH-values for 3 hours at 25° C. and the residual activities were assayed and expressed as relative values against that obtained by no incubation at pH 8.
Table 3 indicates the results of pH-stabilities of the enzymes. The enzyme (about 0.01 mg/ml) was incubated with 50 mM buffer containing 5% sucrose, 0.2 M NaCl, and 5 mM CaCl2 at 25° C. for 3 hours and assayed by PMS-DCIP spectrophotometric method. The buffers were Na-acetate, pH4 and 5, Tris-malate-NaOH, pH 6, 7 and 8, glycine-NaOH, pH 9 and 10. The values in the table are expressed as relative activity against that obtained by no incubation at pH 8.0.

[4] = Substrate specificity of purified enzymes, PMS-DCIP spectrophotometric assay; type: biochemical; conditions: A′ corrected 1.5-fold (purity about 65%)
Protocol: The enzymatic activity of the AADHs herein can be determined by methods known in the art, such as by photometric analysis using a spectrophotometer. In accordance with the present invention, one unit of enzyme activity was defined as the amount of enzyme which catalyzed the reduction of 1 μmole of DCIP per minute. The extinction coefficient of DCIP at pH 8.0 was taken as 15 mM^−1. In a preferred standard assay for determining the enzyme activity of the AADHs herein, a first cuvette includes a standard reaction mixture (1.0 ml) containing 0.1 mM DCIP, 1 mM PMS, 2 to 125 mM substrate, 50 mM Tris-malate-NaOH buffer (pH 8.0), and 10 μl of the enzyme solution. A second cuvette, i.e., a reference cuvette, contains all the above components except the substrate. The reference cuvette is used to standardize the background absorbance resulting from a substrate-independent (endogenous) reaction. Preferably, a double beam spectrophotometer is used to determine the activity of the enzyme in the presence of a substrate with respect to a standard reaction mixture in the absence of the substrate.
Enzyme activities of each clone (cell free extract, soluble fraction and membrane fraction) were measured by photometric analysis. The cells of each clone were inoculated in 5 ml of MB medium in a test tube and cultivated at 30° C. for 24 hours. The resulting broth was transferred into 200 ml of fresh MB medium in 500 ml flask and the flask was shaken on the rotary flask shaker at 30° C. for 24 hours. The cells were collected by centrifugation at 6,000×g for 10 minutes and washed with 40 ml of cold buffer consisting of 50 mM Tris-HCl, pH 7.5, 5 mM MgCl2 and 0.5 mM phenylmethylsulfonyl fluoride and suspended with the same buffer to prepare cell suspension of 1 g wet cells per 5 ml. The cell suspension was subjected twice to a French press cell disruptor (1,500 kg/cm^2) and the resulting homogenate was centrifuged at 6,000×g for 10 minutes to remove cell debris. Thus obtained cell free extract (CFE) was centrifuged at 100,000×g for 60 minutes. The resulting supernatant and pellet were collected as the cytosol fraction and the membrane fraction, respectively and subjected to PMS-DCIP assay as follows. The enzyme reaction mixture (1.0 ml) contained 100 μM DCIP, 1 mM PMS, 50 mM Tris malate-NaOH buffer, pH 8.0, a substrate and the enzyme (10 μl). Substrate-dependent decreasing rate of absorbance of DCIP at 600 nm was measured at 25° C. by using a Kontron spectrophotometer UVIKON 810. […] In the A-group, there were three types, A, A′ and A″ each of which was distinguished from each other by their physical map of the DNA carried on each plasmid. B- or C-group each consisted of only one type of protein derived from one region of the chromosomal DNA.

[5] = 4° C. for 5 minutes (reference)
[6] = 20° C. for 5 minutes, relative to 4° C. incubation
[7] = 30° C. for 5 minutes, relative to 4° C. incubation
[8] = 40° C. for 5 minutes, relative to 4° C. incubation
[9] = 50° C. for 5 minutes, relative to 4° C. incubation
[10] = 60° C. for 5 minutes, relative to 4° C. incubation

Row | Molecule | Relative activity (thermal stability) [1, 5] [%] | Relative activity (thermal stability) [1, 6] [%] | Relative activity (thermal stability) [1, 7] [%] | Relative activity (thermal stability) [1, 8] [%] | Relative activity (thermal stability) [1, 9] [%] | Relative activity (thermal stability) [1, 10] [%] | Oxidation product of D-sorbitol [2] | Oxidation product of L-sorbose [2] | Oxidation product of L-sorbosone [2] | Relative activity (pH stability) ([3]; incubated at pH 4.0, 3 hours) [%] | Relative activity (pH stability) ([3]; incubated at pH 5.0, 3 hours) [%] | Relative activity (pH stability) ([3]; incubated at pH 6.0, 3 hours) [%] | Relative activity (pH stability) ([3]; incubated at pH 7.0, 3 hours) [%] | Relative activity (pH stability) ([3]; incubated at pH 8.0, 3 hours) [%] | Relative activity (pH stability) ([3]; incubated at pH 9.0, 3 hours) [%] | Relative activity (pH stability) ([3]; incubated at pH 10.0, 3 hours) [%] | Relative activity (pH stability) ([3]; incubated at pH 11.0, 3 hours) [%] | Substrate specificity ([4]; 2 mM L-Sorbosone) | Substrate specificity ([4]; 50 mM D-Glucose) | Substrate specificity ([4]; 50 mM D-Mannitol) | further results
1 | Enzyme A′: recombinant AADH of G. oxydans DSM No. 4025, amino acid sequence SEQ ID NO 6, plasmid p1E2 (protein, Gluconobacter oxydans; SIGNAL (1)..(23)) MKTSSLLVASVAALASYSSFALAQVTPVTDELLANPPAGEWISYGQNQENYRHSPLTQITTENVGQLQLVWARGMQPGKVQVTPLIHDGVMYLANPGDVIQAIDAKTGDLIWEHRRQLPNIATLNSFGEPTRGMALYGTNVYFVSWDNHLVALDTATGQVTFDVDRGQGEDMVSNSSGPIVANGVIVAGSTCQYSPFGCFVSGHDSATGEELWRNYFIPRAGEEGDETWGNDYEARWMTGVWGQITYDPVGGLVHYGSSAVGPASETQRGTTGGTMYGTNTRFAVRPETGEIVWRHQTLPRDNWDQECTFEMMVANVDVQPAADMDGVRSINPNAATGERRVLTGVPCKTGTMWQFDAETGEFLWARDTSYENIIESIDENGIVTVDESKVLTELDTPYDVCPLLLGGRDWPSAALNPDTGIYFIPLNNTCMDIEAVDQEFSSLDVYNQSLTAKMAPGKELVGRIDAIDISTGRTLWTAEREASNYAPVLSTAGGVLFNGGTDRYFRALSQETGETLWQTRLATVASGQAVSYEIDGVQYIAIGGGGTTYGSFHNRPLAEPVDSTAIGNAMYVFALPQQ | 100.0 | 100.8 | 103.6 | 78.9 | 0.6 | 0.0 | mainly D-glucose | *1Oxidation product of L-sorbose by Enzymes A, A′, A″, and [A and B] was 2KGA. | *4Oxidation product of L-sorbosone by Enzymes A, A′, A″, B, and [A and B] was 2KGA. | 0.0 | 10.0 | 82.7 | 96.9 | 100.0 | 97.3 | 85.4 | 61.3 | 5.0 units/mg of purified protein | 0.0 units/mg of purified protein | 1.3 units/mg of purified protein | Substrate specificity ([4]; 50 mM Isopropanol): 108.9 units/mg of purified protein; Substrate specificity ([4]; 50 mM n-Propanol): 180.7 units/mg of purified protein; Substrate specificity ([4]; 125 mM D-Fructose): 2.9 units/mg of purified protein; Substrate specificity ([4]; 125 mM D-Sorbitol): 7.8 units/mg of purified protein; Substrate specificity ([4]; 125 mM L-Sorbose): 1.6 units/mg of purified protein
2 | Enzyme A″: recombinant AADH of G. oxydans DSM No. 4025, amino acid sequence SEQ ID NO 7, plasmid p26C3 (protein, Gluconobacter oxydans; SIGNAL (1)..(23)) MKLTTLLQSSAALLVLGTIPALAQTAITDEMLANPPAGEWINYGQNQENYRHSPLTQITADNVGQLQLVWARGMEAGKIQVTPLVHDGVMYLANPGDVIQAIDAATGDLIWEHRRQLPNIATLNSFGEPTRGMALYGTNVYFVSWDNHLVALDTSTGQVVFDVDRGQGTDMVSNSSGPIVANGVIVAGSTCQYSPFGCFVSGHDSATGEELWRNTFIPRAGEEGDETWGNDYEARWMTGVWGQITYDPVGGLVHYGTSAVGPAAEIQRGTVGGSMYGTNTRFAVRPETGEIVWRHQTLPRDNWDQECTFEMMVVNVDVQPSAEMEGLHAINPDAATGERRVVTGVPCKNGTMWQFDAETGEFLWARDTSYQNLIESVDPDGLVHVNEDLVVTELEVAYEICPTFLGGRDWPSAALNPDTGIYFIPLNNACSGMTAVDQEFSSLDVYNVSLDYKLSPGSENMGRIDAIDISTGRTLWSAERYASNYAPVLSTGGGVLFNGGTDRYFRALSQETGETLWQTRLATVASGQAISYEIDGVQYVAIGRGGTSYGSNHNRALTERIDSTAIGSAIYVFALPQQ | 100.0 | 96.0 | 86.1 | 72.8 | 26.6 | 13.3 | mainly D-glucose | *1Oxidation product of L-sorbose by Enzymes A, A′, A″, and [A and B] was 2KGA. | *4Oxidation product of L-sorbosone by Enzymes A, A′, A″, B, and [A and B] was 2KGA. | 6.2 | 77.9 | 105.8 | 100.9 | 99.0 | 100.9 | 104.0 | 79.2 | 26.5 units/mg of purified protein | 17.8 units/mg of purified protein | 6.2 units/mg of purified protein | Substrate specificity ([4]; 50 mM Isopropanol): 154.9 units/mg of purified protein; Substrate specificity ([4]; 50 mM n-Propanol): 262.3 units/mg of purified protein; Substrate specificity ([4]; 125 mM D-Fructose): 17.3 units/mg of purified protein; Substrate specificity ([4]; 125 mM D-Sorbitol): 30.1 units/mg of purified protein; Substrate specificity ([4]; 125 mM L-Sorbose): 30.3 units/mg of purified protein
